T1: biotin-labeled mouse ADM (mouse, not fully specified; biotin label (named mouse ADM-C-biotin in Example 1.4; position of the biotin not stated for the other lots))
T1 construct: Synthetic peptide; also called mouse ADM-C-biotin; mADM-Biotin
T1 peptide: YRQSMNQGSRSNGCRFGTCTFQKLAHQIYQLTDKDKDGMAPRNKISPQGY

T2: biotin-labeled human ADM (human, not fully specified; biotin label (named human ADM-C-biotin in Example 1.4; position of the biotin not stated for the other lots))
T2 construct: Synthetic peptide; also called human ADM-C-biotin; hADM-Biotin
T2 peptide: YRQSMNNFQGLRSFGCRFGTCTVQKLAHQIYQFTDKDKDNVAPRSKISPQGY


Assays:
biotin-labeled mouse ADM = biological target: T1, biotin-labeled mouse ADM; test: BLI (Octet RED96e), as in Example 3
Procedure: (§1) The affinity of antibodies 2004hz00, 2004hz97, and 2004hz99 for biotin-labeled human and mouse ADM (human ADM Cat. No. 894757, mouse ADM Cat. No. 894758, synthesized by GLBiochem) was determined by adopting Octet RED96e (Fortebio). The antigens and the antibodies were all diluted with 1× PBST (1× PBS: Sangon, B548117-0500; 0.02% Tween 20: sigma, P1379), the concentration of the antibody used was 100 nM, and the concentration of the antigen used was 2 μg/mL. The candidate antibody sample was added to a 96-well plate (Greiner bio-one, 655209) at 200 μL/well, the software parameters were set, the temperature was 30° C., and the standard kinetic signal was collected at a frequency of 5.0 Hz; and an SA sensor (Fortebio, Cat. No. 18-5020) was pre-wetted with 1× PBST for 10 min and then tested on a machine.
(§2) The equilibrium dissociation constants (KD) of the antibodies were calculated by measuring the association rates (Kon) and the dissociation rates (Koff) of the antigen-antibody in a 1:1 binding manner by adopting the Data Analysis 12.0 software from Fortebio.
(§3) Similar to Example 3, the affinity of the affinity-matured antibodies Ab2004.Am31 -Ab2004.Am40 and the parent antibody Ab2004.Am01 for human and mouse ADM was further determined, respectively, and the results are shown in Table 10. It can be seen from Table 10 […].

biotin-labeled human ADM = biological target: T2, biotin-labeled human ADM; test: BLI (Octet RED96e), as in Example 3
Procedure: as §1, §2, §3

Row | Binder | Kd (biotin-labeled mouse ADM) [nM] | Response value (biotin-labeled mouse ADM) | koff (biotin-labeled mouse ADM) [s⁻¹] | kon (biotin-labeled mouse ADM) [M⁻¹ s⁻¹] | Kd (biotin-labeled human ADM) [nM] | Response value (biotin-labeled human ADM) | koff (biotin-labeled human ADM) [s⁻¹] | kon (biotin-labeled human ADM) [M⁻¹ s⁻¹]
1 | Ab2004.Am36 (IgG1 antibody) (antibody, V domains shown, Expressed in CHO cells, human IgG1/kappa) VH: QVQLVQSGAEVKKPGASVKVSCKASGYTFTQYGIAWVRQAPGQGLEWMGWISAYQGNTNYAQKLQGRVTMTRDTSTSTAYMELRSLRSDDTAVYYCAREGRWGGSFNIWGQGTMVTVSS VL: DIQMTQSPSSLSASVGDRVTITCRASQGISSYLAWYQQKPGKAPKLLIYDASNVDTGVPSRFSGSGSGTDFTFTISSLQPEDIATYYCQQYDNLPLTFGGGTKVEIKR | 0.518 | 2.75 | 0.000221 | 427000 | 0.291 | 2.7 | 0.000108 | 372000
2 | Ab2004.Am35 (IgG1 antibody) (antibody, V domains shown, Expressed in CHO cells, human IgG1/kappa) VH: QVQLVQSGAEVKKPGASVKVSCKASGYTFTQYGIAWVRQAPGQGLEWMGWISAYQGNTNYAQKLQGRVTMTRDTSTSTAYMELRSLRSDDTAVYYCAREGRWGGSFNIWGQGTMVTVSS VL: DIQMTQSPSSLSASVGDRVTITCRASQGISSYLAWYQQKPGKAPKLLIYDVSILDAGVPSRFSGSGSGTDFTFTISSLQPEDIATYYCQQYDNLPLTFGGGTKVEIKR | 0.452 | 2.74 | 0.000206 | 456000 | 0.281 | 1.96 | 0.000119 | 423000
3 | Ab2004.Am33 (IgG1 antibody) (antibody, V domains shown, Expressed in CHO cells, human IgG1/kappa) VH: QVQLVQSGAEVKKPGASVKVSCKASGYTFTSYGISWVRQAPGQGLEWMGWISPYSGNTNYAQKLQGRVTMTRDTSTSTAYMELRSLRSDDTAVYYCAREGRWGGSFNIWGQGTMVTVSS VL: DIQMTQSPSSLSASVGDRVTITCRASEGISEYLAWYQQKPGKAPKLLIYDASNLETGVPSRFSGSGSGTDFTFTISSLQPEDIATYYCQQYDNLPLTFGGGTKVEIKR | 0.474 | 2.8 | 0.000365 | 769000 | 0.316 | 2.63 | 0.000214 | 676000
4 | Ab2004.Am32 (IgG1 antibody) (antibody, V domains shown, Expressed in CHO cells, human IgG1/kappa) VH: QVQLVQSGAEVKKPGASVKVSCKASGYTFTQYGIAWVRQAPGQGLEWMGWISAYQGNTNYAQKLQGRVTMTRDTSTSTAYMELRSLRSDDTAVYYCAREGRWGGSFNIWGQGTMVTVSS VL: DIQMTQSPSSLSASVGDRVTITCRAAEGIGSYLAWYQQKPGKAPKLLIYDASNLETGVPSRFSGSGSGTDFTFTISSLQPEDIATYYCQQYDNLPLTFGGGTKVEIKR | 0.474 | 2.76 | 0.000219 | 461000 | 0.34 | 2.53 | 0.000146 | 430000
5 | Ab2004.Am34 (IgG1 antibody) (antibody, V domains shown, Expressed in CHO cells, human IgG1/kappa) VH: QVQLVQSGAEVKKPGASVKVSCKASGYTFTHYGIAWVRQAPGQGLEWMGWISAYQGNTNYAQKLQGRVTMTRDTSTSTAYMELRSLRSDDTAVYYCAREGRWGGSFNIWGQGTMVTVSS VL: DIQMTQSPSSLSASVGDRVTITCRASQGISSYLAWYQQKPGKAPKLLIYDVSILDAGVPSRFSGSGSGTDFTFTISSLQPEDIATYYCQQYDNLPLTFGGGTKVEIKR | 0.451 | 2.78 | 0.000222 | 492000 | 0.154 | 2.61 | 6.81e-05 | 444000
6 | Ab2004.Am37 (IgG1 antibody) (antibody, V domains shown, Expressed in CHO cells, human IgG1/kappa) VH: QVQLVQSGAEVKKPGASVKVSCKASGYTFTSYGISWVRQAPGQGLEWMGWISPYTGKTNYAQKLQGRVTMTRDTSTSTAYMELRSLRSDDTAVYYCAREGRWGGSFNIWGQGTMVTVSS VL: DIQMTQSPSSLSASVGDRVTITCRASQGISSYLAWYQQKPGKAPKLLIYDVSILDAGVPSRFSGSGSGTDFTFTISSLQPEDIATYYCQQYDNLPLTFGGGTKVEIKR | 0.469 | 2.85 | 0.00033 | 703000 | 0.256 | 2.88 | 0.00015 | 587000
7 | Ab2004.Am31 (IgG1 antibody) (antibody, V domains shown, Expressed in CHO cells, human IgG1/kappa) VH: QVQLVQSGAEVKKPGASVKVSCKASGYTFTQYGIAWVRQAPGQGLEWMGWISAYQGNTNYAQKLQGRVTMTRDTSTSTAYMELRSLRSDDTAVYYCAREGRWGGSFNIWGQGTMVTVSS VL: DIQMTQSPSSLSASVGDRVTITCRASEGISEYLAWYQQKPGKAPKLLIYDASNLETGVPSRFSGSGSGTDFTFTISSLQPEDIATYYCQQYDNLPLTFGGGTKVEIKR | 0.412 | 2.81 | 0.000221 | 537000 | 0.288 | 2.64 | 0.000141 | 491000

The remaining lines, values ahead:

Row | Kd (biotin-labeled mouse ADM) [nM] | Response value (biotin-labeled mouse ADM) | koff (biotin-labeled mouse ADM) [s⁻¹] | kon (biotin-labeled mouse ADM) [M⁻¹ s⁻¹] | Kd (biotin-labeled human ADM) [nM] | Response value (biotin-labeled human ADM) | koff (biotin-labeled human ADM) [s⁻¹] | kon (biotin-labeled human ADM) [M⁻¹ s⁻¹] | Binder
8 | 0.492 | 2.65 | 0.000253 | 513000 | 0.352 | 2.66 | 0.000158 | 449000 | Ab2004.Am40 (IgG1 antibody) (antibody, V domains shown, Expressed in CHO cells, human IgG1/kappa) VH: QVQLVQSGAEVKKPGASVKVSCKASGYTFTQYGIAWVRQAPGQGLEWMGWISAYQGNTNYAQKLQGRVTMTRDTSTSTAYMELRSLRSDDTAVYYCAREGRWGGSFNIWGQGTMVTVSS VL: DIQMTQSPSSLSASVGDRVTITCRASQGISSYLAWYQQKPGKAPKLLIYDASNLETGVPSRFSGSGSGTDFTFTISSLQPEDIATYYCQQYDDLPLSFGGGTKVEIKR
9 | 0.489 | 2.7 | 0.000266 | 543000 | 0.178 | 2.57 | 8.33e-05 | 468000 | Ab2004.Am39 (IgG1 antibody) (antibody, V domains shown, Expressed in CHO cells, human IgG1/kappa) VH: QVQLVQSGAEVKKPGASVKVSCKASGYTFTHYGIAWVRQAPGQGLEWMGWISAYQGNTNYAQKLQGRVTMTRDTSTSTAYMELRSLRSDDTAVYYCAREGRWGGSFNIWGQGTMVTVSS VL: DIQMTQSPSSLSASVGDRVTITCRASQGISSYLAWYQQKPGKAPKLLIYDASNLETGVPSRFSGSGSGTDFTFTISSLQPEDIATYYCQQYDDLDLTFGGGTKVEIKR
10 | 0.467 | 2.88 | 0.000342 | 733000 | 0.255 | 2.83 | 0.00016 | 626000 | Ab2004.Am38 (IgG1 antibody) (antibody, V domains shown, Expressed in CHO cells, human IgG1/kappa) VH: QVQLVQSGAEVKKPGASVKVSCKASGYTFTSYGISWVRQAPGQGLEWMGWISPYTGKTNYAQKLQGRVTMTRDTSTSTAYMELRSLRSDDTAVYYCAREGRWGGSFNIWGQGTMVTVSS VL: DIQMTQSPSSLSASVGDRVTITCRASQGISSYLAWYQQKPGKAPKLLIYDTSDLDTGVPSRFSGSGSGTDFTFTISSLQPEDIATYYCQQYDNLPLTFGGGTKVEIKR
11 | 0.497 | 2.75 | 0.000297 | 597000 | 0.567 | 2.07 | 0.000382 | 673000 | Enibarcimab (antibody, V domains shown) VH: QVQLVQSGAEVKKPGSSVKVSCKASGYTFSRYWIEWVRQAPGQGLEWIGEILPGSGSTNYNQKFQGRVTITADTSTSTAYMELSSLRSEDTAVYYCTEGYEYDGFDYWGQGTTVTVSS VL: DVVLTQSPLSLPVTLGQPASISCRSSQSIVYSNGNTYLEWYLQRPGQSPRLLIYRVSNRFSGVPDRFSGSGSGTDFTLKISRVEAEDVGVYYCFQGSHIPYTFGGGTKLEIKR

From patent US20260035456A1 (SHANGHAI JEYOU PHARMACEUTICAL, published 2026)
